Values of other authors, collected in PMC4370575.

Experiments:
Mms2 (Homo sapiens) = Mms2 (Homo sapiens) (UniProt Q15819)
UbcH5c~Ub (Homo sapiens) = UbcH5c~Ub (Homo sapiens) (UniProt P61077)

UniProt Q15819, sequence (Q15819 2-145): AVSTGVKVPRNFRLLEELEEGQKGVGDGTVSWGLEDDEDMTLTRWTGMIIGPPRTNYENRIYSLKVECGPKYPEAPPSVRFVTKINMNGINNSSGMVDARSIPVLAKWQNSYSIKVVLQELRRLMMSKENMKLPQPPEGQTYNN

Row | Kd (Mms2 (Homo sapiens)) | Kd (UbcH5c~Ub (Homo sapiens)) | Substance
1 | 2 µM | – | Ubc13 (from UniProt P61088)
2 | – | 25 µM | UbcH5c~Ub (from UniProt P61077)
